Tests used:
[1] = system: DU145 prostate cancer cells; experiment: DU145 prostate cancer xenograft study; format: in vivo, human; conditions: combination of docetaxel (10mpk q7d) and P4-G1-M1.3 (30mpk, q3d); FIG. 4
Method: (§1) The y-axis represents mean tumor volume in mm^3 and the x-axis represents time in days.
(§2) For each of the xenograft studies below, cells are resuspended 1:1 with PBS:Growth factor-reduced Matrigel® and injected subcutaneously into Nu/Nu mice. Tumors are allowed to develop for 8 days. Antibodies are injected intraperitoneally every 3 days (q3d) at the indicated doses/mouse. Tumor lengths and widths are measured twice a week manually by caliper, and tumor volume calculated using the following formula: π/6(L×W^2). Each arm of a study contains 10 animals. All studies are carried out using methods approved by an internal IACUC panel.
Statistical significance across groups was determined using the student's T-test (*,p<0.05 vs control.; #,p<0.05 vs docetaxel; a,p<0.05 vs P4-G1-M1.3).

[2] = system: Ewing's sarcoma or metastatic pancreatic cancer; experiment: Treatment of patients with Ewing's sarcoma or metastatic pancreatic cancer; format: in vivo, human; conditions: irinotecan or nanoliposomal irinotecan + P4-G1-M1.3
Method: (§3) P4-G1-M1.3 is formulated in 20 mM histidine, 100 mM arginine-HCl, 3% sucrose, at pH 5.5 supplemented with 0.002-0.02% of Tween® 80 at concentration range 5-15 mg/mL. P4-G1-M1.3 is administered to patients at 6 mg/kg, 12 mg/kg, 20 mg/kg, 30 mg/kg, 40 mg/kg, 50 mg/kg or 60 mg/kg q7d, ql4d, q21d, or q28d with a loading dose of 12 mg/kg, 20 mg/kg, 40 mg/kg, 40 mg/kg or 60 mg/kg Everolimus is administered to patients at 2.5 mg, 5 mg, or 10 mg orally once a day or once every other day.
Patients with Ewing's sarcoma or metastatic pancreatic cancer are treated with a combination of an effective amount of irinotecan (Camptosar®) or nanoliposomal irinotecan and an effective amount of P4-G1-M1.3. P4-G1-M1.3 is formulated and administered as described above (e.g., Example 1). Nanoliposomal irinotecan is given i.v. at 80 mg/m^2 or 120 mg/m^2 q3w. Camptosar® is administered per manufacturer's directions.

melanoma = experiment: Treatment of patients with melanoma; format: in vivo, human; conditions: vemurafenib or dabrafenib + P4-G1-M1.3
Method: as §3
Patients with melanoma are treated by administration of either monotherapy with an effective amount of vemurafenib (Zelboraf®) or an effective amount of P4-G1-M1.3, or with combination therapy comprising or consisting of administration of both the effective amount of vemurafenib or dabrafenib and the effective amount of P4-G1-M1.3. P4-G1-M1.3 is formulated and administered as described above in Example 1. Vemurafenib is given orally at 960 mg 1-2 times daily. Dabrafenib is administered as administered in dabrafenib phase III clinical trials.

[3] = system: hepatocellular carcinoma (HCC); experiment: Treatment of patients with hepatocellular carcinoma; format: in vivo, human
Method: as §3
Patients with hepatocellular carcinoma (HCC) are treated with P4-G1-M1.3 monotherapy. Patients are dosed with P4-G1-M1.3 as described in Example 1 (second line in patients refractory to sorafenib). […] Preclinical data to support this example may be obtained using HepG2 cells in vitro and in vivo.
Patients with hepatocellular carcinoma (HCC) are treated with a combination of an effective amount of sorafenib and an effective amount of P4-G1-M1.3. Patients are dosed with P4-G1-M1.3 as described in Example 1. Patients are dosed with sorafenib at 400 mg daily. […] Preclinical data to support this example may be obtained using HepG2 cells in vitro and in vivo.

[4] = system: HepG2 hepatocellular carcinoma cells; experiment: HepG2 quantitative western blotting; format: cell-based, human; conditions: 2 hours or 6 hours, compared to either alone, FIG. 5
Method: Cells were treated with 500 nM P4-G1-M1.3, […] sorafenib or the combination for either 2 hours or 6 hours and quantitative western blotting was performed.
Buffer containing β-Mercaptoethanol (β-ME) is added and lysates are boiled for 5 minutes at 95° C. Approximately 40 μg of protein and two ladders (Invitrogen) are run on each well of an 18-well gel (BioRad). Gels are run at 150 volts constant for approximately 90 minutes and transferred to nitrocellulose membranes using the 8 minute transfer program of the iBlot® (Invitrogen) transfer system. Membranes are blocked in Odyssey® Blocking Buffer (Licor® Biosciences) for 1 hour at room temperature, and then incubated with primary antibodies overnight at 4° C. in 5% BSA in TBS-T. All antibodies are purchased from Cell Signaling and used at the recommended dilution. The following day membranes are washed 3×5 minutes each with TBS-T and then incubated with anti-Rabbit IgG—DyLight® 800 (Cell Signaling) or anti-Rabbit IRDye® 800 (Licor® Biosciences) at 1:10,000-15,000 in 5% milk in TBS-T for 1 hour at room temperature. Membranes were then washed 3×5 minutes each with TBS-T and scanned using the Licor® Odyssey® system (Licor® Biosciences). Intensities are quantified using Image Studio 2.0 and normalized to β-Actin levels. […]

BxPC-3 tumors = experiment: BxPC-3 xenograft pharmacodynamic (PD) study, western blotting of tumor lysates; format: in vivo, human; conditions: BxPC-3 PD study tumors
Method: BxPC-3 mouse xenograft models are established using 5×10^6 BxPC-3 cells that are resuspended 1:1 with PBS:Growth factor-reduced Matrigel® and injected subcutaneously into Nu/Nu mice. Tumors are allowed to develop for 8 days. Antibodies are injected intraperitoneally every 3 days (q3d) for 2 rounds of dosing.
For the BxPC-3 PD study, 4 treatment groups are established, each containing 4 mice. These included control, P4-G1-M1.3 (q3d, 600 μg), gemcitabine (q3d, 150 mg/kg) and P4-G1-M1.3+gemcitabine (combined individual doses). Tumors are excised on either day 19 or day 28, resulting in a total of 8 groups.
Tumors are initially weighed and pulverized in a CryoPrep® tissue pulverizer (Covaris). Tissue Extraction Reagent 1 (TER1, Life Technologies™) containing protease and phosphatase inhibitors was added to the tumor at a ratio of lml TER1 per 100 mg of tissue. Samples are incubated on ice for 30 minutes to solubilize tissue and put through a QIAshredder™ column (Qiagen) according to the manufacturer's protocol. A BCA assay (Pierce) is performed to determine protein concentration according to the manufacturer's protocol.
Using BxPC-3 xenografts, mice with control tumors were compared to those treated with monotherapy with P4-G1-M1.3, monotherapy with gemcitabine or combination therapy with P4-G1-M1.3 and gemcitabine.

KP4 cells = experiment: In vitro signaling ELISA, KRAS mutant cells; format: cell-based, human; conditions: combination 500 nM P4-G1-M1.3 + 250 nM GSK1120212, 24 hours, 10% serum, FIG. 3
Method: Cells were treated with 500 nM P4-G1-M1.3, 250 nM GSK1120212 or the combination for 24 hours in 10% serum and ELISA assays were performed. The data was normalized to 10% serum without treatment.
The preclinical models to support this example are performed using BxPC-3 (KRAS wild-type) and KP4 (KRAS mutant) cell lines.

[5] = system: Caki-1 renal cell carcinoma cancer cells; experiment: Caki-1 renal cell carcinoma xenograft study; format: in vivo, human
Method: as §1
as §2, with “panel. […]” for “panel.”

B1: P4-G1-M1.3: anti-IGF-1R+anti-ErbB3 polyvalent bispecific antibody, IgG1-(scFv)2 (SEQ ID NO:148 and SEQ ID NO:149) (protein)
chain 1: EVQLLQSGGGLVQPGGSLRLSCAASGFLFSSYPMHWVRQAPGKGLEWVGSISPSGGATPYADSVKGRFTISRDNSKNTLYLQMNSLRPEDTAVYYCAKDFYNILTGNAFDKWGQGTSVTVSSASTGGGGSGGGGSGGGGSGGGGSDIQLTQSPSSLSASLGDRVTITCRASQGISSYLAWYQQKPGKAPKLLIYAGSTPQSGVPSRFSGSGSGTEFTLTISSLQPEDSGTYYCQQYWTWPLTFGGGTKVEIKRT
chain 2: EVQLVESGGGLVQPGRSLRLSCAASGFTFDDYAMHWVRQAPGKGLEWVSGISWNSGSTGYADSVKGRFTISRDNAKNSLYLQMNSLRAEDTALYYCARDLGYNQWLEGFDYWGQGTLVTVSSASTGGGGSGGGGSGGGGSGGGGSSSELTQDPAVSVALGQTVRITCQGDSLRSYYASWYQQKPGQAPVLVIYGKNNRPSGIPDRFSGSSSGNTASLTITGAQAEDEADYYCMSRDHPGNQWVFGGGTKVTVLG
modifications: Synthetic polypeptide:Anti-IGF-1R scFvs M76; Synthetic polypeptide:Anti-ErbB3 scFvs P6L
growth of DU145 prostate cancer cells in vivo (mean tumor volume) [1]: inhibition of growth
treatment outcome [2]: combinatorially enhanced outcome
treatment outcome (melanoma): combinatorially enhanced outcome
HCC symptoms (e.g., time to progression or progression-free survival) ([3]; P4-G1-M1.3 monotherapy, second line in patients refractory to sorafenib, vs untreated historical controls or best supportive care): statistically significant improvement in HCC symptoms
treatment outcome ([3]; patients with HCC, sorafenib 400 mg daily + P4-G1-M1.3): combinatorially enhanced outcome
downstream signaling (pErbB3, pAkt Ser473, pERK1/2) ([4]; combination of 500 nM P4-G1-M1.3 and 504 sorafenib): inhibits downstream signaling
ErbB3 level ([4]; combination of 500 nM P4-G1-M1.3 and sorafenib): downregulation of ErbB3
ERK phosphorylation (BxPC-3 tumors; FIG. 2H): inhibits ERK phosphorylation
apoptosis-inducing activity of gemcitabine (survivin) (BxPC-3 tumors; P4-G1-M1.3 600 μg + gemcitabine 150 mg/kg q3d, FIG. 2H): potentiates apoptosis-inducing activity of gemcitabine
level of receptor complexes (IGF-1R, Insulin Receptor, EGFR, ErbB3, ErbB2) (BxPC-3 tumors; P4-G1-M1.3 q3d 600 μg, FIG. 2A-2C): downregulates receptor complexes
PI3K/AKT/mTOR signaling (phospho-AKT, phospho-FoxO, phospho-PDK1, phospho-mTOR, phospho-S6, pRAS40, p4EB-PB1) (BxPC-3 tumors; P4-G1-M1.3 q3d 600 μg, FIG. 2D-2G, 2I, 2J): inhibits PI3K/AKT/mTOR signaling
signaling (pAkt Ser473, pERK) (KP4 cells): inhibition of signaling
response to everolimus (tumor growth) ([5]; Caki-1 xenograft in Nu/Nu mice, 3mpk everolimus+500 μg P4-G1-M1.3, FIG. 1): potentiates responses to everolimus
tumor growth (mean tumor volume) ([5]; Caki-1 xenograft in Nu/Nu mice, P4-G1-M1.3 at 500, 300, or 100 μg, FIG. 1): suppresses tumor growth
tumor growth ([5]; Caki-1 xenograft, Example 12): suppresses tumor growth
response to sirolimus ([5]; Caki-1 xenograft, combination with sirolimus): potentiates responses to sirolimus

— US20180036395A1, “DOSAGE AND ADMINISTRATION OF MONOSPECIFIC AND BISPECIFIC ANTI-IGR-1R AND ANTI-ERBB3 ANTIBODIES” (Merrimack Pharmaceuticals, Inc., priority 2012, published 2018)
